Measured values published in the DeepSol protein solubility set.

test: soluble on expression in E. coli; label from the status in PepcDB or PDB records

Row | Sequence | soluble on expression in E. coli
1 | MSTLRVACVIPTYNGCQDLARLLDSLEIQSAPFDTLIVDSSSSDGTYELALARCANVLRIDSRDFNHGGTRQLMVERNADYDLYVFMTQDAYLEDAEGLARIVAPFADPQVGAVCGRQLPHLDASPLASHARLFNYPPTSQVKSLADVPALGIKTAFMSNSFSAYRREALMQVGGFPNHVILSEDMYVGAKMLLAGWKVAYEGSACCRHSHNYSLKEEFRRYFDIGVFHAREPWIRQAFGGAGGEGLRYVQSELRFLGPGRLGQWPGSLLRNAVKLFAYKLSQQERYLPLGLKRKLGMYKRYWDSPYALEHHHHHH | soluble
2 | MSLRKFWHVGINVTDMDKSIDFYRRIGFEVVQDREVEDSNLARAFMVEGASKLRFAHLRLNDSPDEAMLDLIEWRDARSEGRAQSDLVHPGLCRFSILTDDIDAEYARLADDGVQFLHAPQTIMGPDGVKGWRLLFARDPDGTLFHFAELVGQAATEGHHHHHH | not soluble
3 | MTKRIEIKPATAADQAALAEIYLVDRQQDFPWVTDPQLQDFNEDSRGEFVLVAWIDGQRAGFCSLYRLANFIHLLFVAPDFRHLKVGERLLTEMRQYATEPLTLKCVMANENALRFYAQVGFRIVK | not soluble
4 | MYEQQQHFMDLQSDSGFGDDSSWLAGDDDLRLSPHQSAAGTNSGNENLDRRLLKDLVEMVPLIEHYMEHKERSSFKRRGSMIYTKMPSKESLSRRGRNASQTVPGRKKRDQEGNDDVMNNSREDDENAKALAGAEKEEMSRLREQVNDLQTKLSEKEEVLKSMEMSKNQVNEIQEKLEATNRLVAEKDMLIKSMQLQLSDTKIKLADKQAALEKTQWEAKTTGTRAIKLQEQLDAVEGDISTFTRVFETLAKTDSKKPDRDYDAVPYEFDHLPYLDDVDETDLRKMEEARLAYVAAVNTAKEREDEESLVMAAQARAYLQSLAFTY | soluble
5 | MGSDKIHHHHHHMSIDNVSGTSSNTGNVNGSKRAAGSGATETGQSVKGSSNLGKDEFLKLLVAQLKNQDPMSPQQNGEFIAQLAQFSTVEGVQSLNKSMESILSNYQSSQALQASSLVGRKVIVATDKSVVDTKDTFKASLNLPVSSSNVWVNVYDDKGTVVNRINLGQQAAGSVSFMWDGKDSSGNIMPPGTYKFEAQTSIDGKTYGLQTYLPANVDSVTLGQNGGELMLNLAGLGSIALSKVQIIGQ | not soluble
6 | MAFLSTSVLIKCCILLLAGGLAESLTLGLAPALSTHSSGVSTQSVDLSQIKRGDEIQAHCLTPAETEVTECAGILKDVLSKNLHELQGLCNVKNKMGVPWVSVEELGQEIITGRLPFPSVGGTPVNDLVRVLVVAESNTPEETPEEEFYAYVELQTELYTFGLSDDNVVFTSDYMTVWMIDIPKSYVDVGMLTRATFLEQWPGAKVTVMIPYSSTFTWCGELGAISEESAPQPSLSARSPVCKNSARYSTSKFCEVDGCTAETGMEKMSLLTPFGGPPQQAKMNTCPCYYKYSVSPLPAMDHLILADLAGLDSLTSPVYVMAAYFDSTHENPVRPSSKLYHCALQMTSHDGVWTSTSSEQCPIRLVEGQSQNVLQVRVAPTSMPNLVGVSLMLEGQQYRLEYFGDH | soluble
7 | MVEPGRIGGNQTRLAAVLLDVSTPNTLNADFDLMRSVAGITDARNEEIRAMLQAFIGRMSGVPPSVWGGLAAARFQDVVDRWNAESTRLYHVLHAIADTIRHNEAALREAGQIHARHIAAAGGDL | soluble
8 | VKTILFFILIFNSQYMSKRIGVAVVGLGSIGKTHVKALKDLEKETEFVKLVAVVDQIKAIAEKIGSEYGTPYYTTIDEVLRNSEVDVISIATPSYLHAPQAILAIEYGKHVIVEKPMATTLAGAREMVSRAERNEVKLGVIFQERYAPDIRRLKNDILKELGRIYLIESELKWYRDMKGYYKRDEIARSWRGMWNTEGGGVMTNQGIHTIDLMIWLNGEVEEVSGFVDNLTHDGIEVEDTAVAIMRYKNGALGTISQTVSMKPTTYQYRKIRVNGSNGFVEITDGSLSTVAIEGKIEESKSSVEYKKETIAQPGNLHKELLRDFLRALSEDNDFPINGKEGMKSLEVIKAVYLSSVNRQVVKLPLDVRIVV | soluble
9 | MYKPITFSLKYIFKTAGKVEVQGREKLPEGGPYVVACTHTSFMDVLMLATGMYPTEIHYMAKKELFEGKFKNWFFKNVNAFPVDRANPGPSTLKIPSRLLKEGKVVGIFPSGTRSTEDVSLKAGAVTIAMRSNVPLIPAAYIGPSSVKELIKGKRAQLIFGDPIQIDAEEQIDRKTAMKMMTDQLNEKFEGLKEALQSNQK | not soluble
10 | MGLSDEQLGKIVRFHLKEDKQAHERIKQKMMESMKAFRKAVGEPATDDETLRKLGQAHIDSFNEMVKYHIDERKAVRSILTPEQIGKLEHHHHHH | not soluble
11 | MQERVFHVASPKAKLYSEADQAIRERLKDFPKALRAYEMLVQDPEARSGWNMANYLTMRKLGYNDHGRVHALLTGAASVAILALLSEAGVRLDTVESGAGELEDAYVVVLLSTMLHDLGNQVHRFGHEAFGVVLALPILNRILDKLYPDPEQRTAIRALILHGIYSHDLSPEPLTIEAGITAVADGTDITKGRGRKAFQLGSIDIHSISALAVDEVRILKGEKVPVEIQVTMNNSAGIFQVEETLTKKVLKSPLRPYVTVVAMTDGEGGQDQRIVHRVRLHETEDRFVLD | soluble
12 | MSKTFKDYGTGSGKDVIADEKPFSILLMGVDTGSSERTSKWEGNSDSMILVTVNPKTKKTTMTSLERDILVKLSGSKTNDQTGYDAKLNAAYAAGGAKMAIMTVQDMLDIKIDKYVQINMEGLVQLVDAVGGITVTNHFDFPISIEEHEPEFTASVEPGTHKINGEQALVYSRMRYDDPDGDYGRQKRQREVISKVLKKILALDSVSKYRKILSAVSKNMQTNIEISSSTIPKLLGYSDALKSIRTYQLKGEGTTIDGGSYQLVTSKELLKAQNRIKGQLGLKKSTAENLKTTASLYENFYGGDTSIYDSSSSASDYSSSGNYSGSSSDYGSSSSYGSNSSSGSSSDYSGQNSYNQGNYQQPAAGTGIGNLEHHHHHH | soluble
13 | MDAQTFKTAIVRRRLVDVLMNPELKATLVLKNGLVINVVTREIYPADVAVYDEYILKVGDASDLIGPETEVVDLQGKYYVSPGFIDSHMHFESSMLTISEFSRLSIPSGTTTLVADPHEIGNALGPVGIKAMAEETKVVPNRVYLVVPALTPDCPGLETAGYDITSRDMPEILNYPNVIGIGELQGFSNAKYVYKYTPEIITDLIASTTYAKSIGKIVDGNAPELFGSELAAHLIAAGTEASCHETTTKEECVEKLRYGMYVFMREGSTQKNMAECIRAVTEEGLDSRRLIGATDDMVAEDLAKNGHMNWVVARIIKQGIDPVEAIQMVTINPATYFGLKHVGVLAPGKMADIVVISDLMDMKVEKVYIGGKLVAEKGKMVVNIPKYTYPEEVKHSVKCKPVTAEALEIKATGSNAVVRTIGLIPDQNLTESFEFTVPVSGGVAQPDLTQDVLPIAVVERYGRNGSIGRAFVRGFGLKGGAFAESVSHDAHNIIVVGTSYQDMALAVNRVIEMGGGVAVVKNGRVLGDLRLPVGGLITDELDGYELSRKIAELHRLTAVELGCTVHAPFMHLSFLALTTSPKWKITDQGLIDVNSFAIIPPVK | soluble
14 | MSLIYLLNETPFEGVENLILNEIVFYDFSVDLSLYDALICTSKNALKALQHAKITLNFKLNLYAVGQSTAQYAKNLGFKKIKIPSKAYGKDLFLEFKEELKMQKCLYLRAKNIVSTLNLDLKNVGVDLDEMIVYENVFKKGDKKLIHPAIFIFTSPLSVENFLKFYSLKEEDKVVVIGQSTAKKLLNFKNLYICENQSLLNCVKLAKTLVEGHHHHHH | not soluble
15 | MSLKNLHPIMLAGTGSDVGKSVIAAALCRIFKQDGYRPAPFKAQNMALNSYATPEGLEIGRAQAVQAEAAGVPCHTDMNPLLLKPSSDHTSQVVLNGRPIGNRNAFEYFRKEGREELRQEVNAAFDRLAARYNPIVMEGAGSISEINLRDTDLVNMPMACYADADVILVADIDRGGVFASVYGSVMLQTPEDKKRIKGVIINKFRGDIRLFESGVKMMEDLCGIPVLGIIPYYRNIHIEEEDSVGLDYKRMQAVEGKINIAVVLLRHLSNFTDFNRLERDERVHLYYTNNTEDLAKADIILLPGSKSTLDDLYELRRNGVAQAVLRAHREGVTVMGICGGYQLMGLEIHDPEGVEGEIRQLPGLGLLPVITTMQGEKVTRQVNFHFLENAETCQGYEIHMGETRPVPGEAVVPLNKLEDGGEDGCFVNQKCMGSYIHGILDNQAFIDYLLEPYAEKLECHTVLDYRTYKEEQYDKLAEHVRSHLNLPLLYQIMSGNEGHHHHHH | soluble
16 | MGTRSPHIVLRNATYLNSYIREWMQANIWIYDDRIIYVGEKLPEQLHECEVIDCDGKYVVPSYIEPHAHPYQLYNPETLANHAMQFGTTTFINDNLEHHHHHH | soluble
17 | MSLFFTFMRGVVRVILFVINGNAHYENKEKLPKDQNYVLVAPHRTWWEPLYLAVAGSPKKFSFMAKKELFKNPVLRFILKHANAFPVDREKPGPSAIKTPVKILKNSDLSLIMFPSGTRHSSELKGGVALIAKMGRVPIVPSVYQGPLTLKELFKRKKVTVRFGEPIDISDIKKMDKDGLAEVERRMQEAFDQLDKEIDPTFKYESTEEGHHHHHH | soluble
18 | MRKFMMSVVMLAALTSCATQNMHGNYAAVSIEANKTMADVTVAQLVALYPPAHTRLDFQQTITDPYGAALLSALRKKGYSVLEYNPQPQAVPAKSAATAALVTANPTSGLPLSYVVDSPESMNLYRITVQIGVQSISRAFVVATNGNLYPAGAWVRKELEHHHHHH | not soluble
19 | MESIGLVIVSHSKHIAEGVVELISKVAKDVPITYVRGTEGGGIGTSFEQVDRVVSENPADTLLAFFDLGSAKMNLKMVTDFSDKSIIINRVPIVEGAYNAAALLQAGAELSVIQTQLAELEINK | not soluble
20 | MGHHHHHHSHMRTISFFNNKGGVGKTTLSTNVAHYFALQGKRVLYVDCDPQCNATQLMLTEEQTESIYLDGLNDEVAERNSLAKTVYAIFVPLREGESQIAAEITPMRSERFGVDVLPGHPALSQIEDLMSDSWQSALGRQTGPFRRIHWAGQLAHAMERDDRYDVIFFDVGPSLGPFNRTVLLGCDAFVTPTATDLFSFHAFGNLARWFDAWVTQYAEIHEGNMAEWKKYS | not soluble
21 | MSLRITRLTVFHLDLPLAKPYWLSGGRLKFDRLDSTYLRIDTDEGVTGWGEGCPWGHSYLPAHGPGLRAGIATLAPHLLGLDPRSLDHVNRVMDLQLPGHSYVKSPIDMACWDILGQVAGLPLWQLLGGEAATPVPINSSISTGTPDQMLGLIAEAAAQGYRTHSAKIGGSDPAQDIARIEAISAGLPDGHRVTFDVNRAWTPAIAVEVLNSVRARDWIEQPCQTLDQCAHVARRVANPIMLDECLHEFSDHLAAWSRGACEGVKIKPNRVGGLTRARQIRDFGVSVGWQMHIEDVGGTALADTAALHLAASTPEANRLASWLGHAHLADDPIPGQGARNRDGLATPPSAPGLGVIPDPEALGRPVASYDEGHHHHHH | soluble
22 | MVGRELFKPVPSSTKPQSNASILARFRTAKSRHQPDRRGAQISANDRKSFVTRETPRTDSCFVSERLAMDDLVQIARCAGGKSVLRLTGVCLLTLLFAIASPAHSTHRPVDDLADVDLQLILAVDVSPSMSKVEQKVQRDGYVGAFRHADIARALKSGERGRIAVLYLEWAGPRQQTVVMPWTIVESLDDALILADRLAALPLTEGRGTSISGALSAAHALFAKSGLRSPRRVIDVSGDGPNNAGLPLQLVHDALTTGGVTINGLAISLRAADTLDSFGPHFIELYYESCVIGGSNAFVVTVENTADFANAIRKKLVNEIAGLSAKVQPATYRSHSRPVVLEHHHHHH | soluble
23 | LTGPLMLDTAPNAFDDQYEGCVNKMEEKAPLLLQEDFNMNAKLKVAWEEAKKRWNNIKPSRSYPKGFNDFHGTALVAYTGSIAVDFNRAVREFKENPGQFHYKAFHYYLTRALQLLSNGDCHSVYRGTKTRFHYTGAGSVRFGQFTSSSLSKKVAQSQEFFSDHGTLFIIKTCLGVYIKEFSFRPDQEAVLIPGYEVYQKVRTQGYNEIFLDSPKRKKSNYNCLYS | soluble
